Measured values reported in patent US20240059789A1 (Janssen / Centocor, published 2024).

Molecular target: Human PSMA on prostate cancer cell lines (C4-2B, 22RV1) (human, UniProt Q04609 1-750)
Assay: cell-based or functional assay

Sequence of Human PSMA on prostate cancer cell lines (C4-2B, 22RV1) (Q04609 whole entry): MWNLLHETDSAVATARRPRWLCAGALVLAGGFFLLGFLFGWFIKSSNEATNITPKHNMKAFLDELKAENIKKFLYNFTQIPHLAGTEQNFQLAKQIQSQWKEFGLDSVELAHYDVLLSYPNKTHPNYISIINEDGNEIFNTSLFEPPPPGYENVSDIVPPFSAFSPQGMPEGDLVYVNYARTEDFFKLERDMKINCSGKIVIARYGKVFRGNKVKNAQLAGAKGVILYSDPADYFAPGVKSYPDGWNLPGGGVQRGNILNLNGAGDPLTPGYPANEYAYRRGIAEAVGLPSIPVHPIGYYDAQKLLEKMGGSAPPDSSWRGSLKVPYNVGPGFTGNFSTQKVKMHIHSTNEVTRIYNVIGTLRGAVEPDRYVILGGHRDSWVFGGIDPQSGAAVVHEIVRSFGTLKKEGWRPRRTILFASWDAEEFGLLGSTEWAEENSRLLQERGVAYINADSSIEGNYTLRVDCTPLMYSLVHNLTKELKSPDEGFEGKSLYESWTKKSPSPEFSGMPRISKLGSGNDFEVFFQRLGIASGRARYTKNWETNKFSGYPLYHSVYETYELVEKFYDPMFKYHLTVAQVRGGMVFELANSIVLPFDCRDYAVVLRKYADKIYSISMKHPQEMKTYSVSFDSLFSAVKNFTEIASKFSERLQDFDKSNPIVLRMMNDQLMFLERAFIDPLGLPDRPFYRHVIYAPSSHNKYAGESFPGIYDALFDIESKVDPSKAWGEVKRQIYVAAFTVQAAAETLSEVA

Row | Binder | Cytotoxicity (C4-2B cells, 3:1 E:T ratio, 5 Day) at 3.3 nM | Cytotoxicity (C4-2B cells, 3:1 E:T ratio, 5 Day) at 10 nM | Cytotoxicity (C4-2B cells, 3:1 E:T ratio, 5 Day) at 30 nM | Cytotoxicity (C4-2B cells, 3:1 E:T ratio, 5 Day) at 0.3 nM | Cytotoxicity (C4-2B cells, 3:1 E:T ratio, 5 Day) at 1.1 nM
1 | PS3B1354 (bispecific antibody, human IgG1, lambda, L234A L235A) heavy 1: QVQLQQSGPRLVRPSQTLSLTCAISGDSVFNNNAAWSWIRQSPSRGLEWLGRTYYRSKWLYDYAVSVKSRITVNPDTSRNQFTLQLNSVTPEDTALYYCARGYSSSFDYWGQGTLVTVSSASTKGPSVFPLAPSSKSTSGGTAALGCLVKDYFPEPVTVSWNSGALTSGVHTFPAVLQSSGLYSLSSVVTVPSSSLGTQTYICNVNHKPSNTKVDKKVEPKSCDKTHTCPPCPAPEAAGGPSVFLFPPKPKDTLMISRTPEVTCVVVSVSHEDPEVKFNWYVDGVEVHNAKTKPREEQYNSTYRVVSVLTVLHQDWLNGKEYKCKVSNKALPAPIEKTISKAKGQPREPQVYTLPPSREEMTKNQVSLTCLVKGFYPSDIAVEWESNGQPENNYKTTPPVLDSDGSFLLYSKLTVDKSRWQQGNVFSCSVMHEALHNHYTQKSLSLSPGK light 1: QSALTQPASVSGSPGQSITISCTGTSSNIGTYKFVSWYQQHPDKAPKVLLYEVSKRPSGVSSRFSGSKSGNTASLTISGLQAEDQADYHCVSYAGSGTLLFGGGTKLTVLGQPKAAPSVTLFPPSSEELQANKATLVCLISDFYPGAVTVAWKADSSPVKAGVETTTPSKQSNNKYAASSYLSLTPEQWKSHRSYSCQVTHEGSTVEKTVAPTECS heavy 2: EVQLVESGGGLVQPGGSLRLSCAASGFTFSSYAMSWVRQAPGKGLEWVSAISGGSGSTYYADSVKGRFTISRDNSKNTLYLQMNSLRAEDSAVYYCAKDGVGATPYYFDYWGQGTLVTVSSASTKGPSVFPLAPSSKSTSGGTAALGCLVKDYFPEPVTVSWNSGALTSGVHTFPAVLQSSGLYSLSSVVTVPSSSLGTQTYICNVNHKPSNTKVDKKVEPKSCDKTHTCPPCPAPEAAGGPSVFLFPPKPKDTLMISRTPEVTCVVVSVSHEDPEVKFNWYVDGVEVHNAKTKPREEQYNSTYRVVSVLTVLHQDWLNGKEYKCKVSNKALPAPIEKTISKAKGQPREPQVYTLPPSREEMTKNQVSLTCLVKGFYPSDIAVEWESNGQPENNYKTTPPVLDSDGSFFLYSRLTVDKSRWQQGNVFSCSVMHEALHNHYTQKSLSLSPGK light 2: QSVLTQPPSVSAAPGQKVTISCSGSSSNIGNNYVSWYQQLPGTAPKLLIYDNNKRPSGIPDRFSGSKSGTSATLGITGLQTGDEADYYCGTWDSSLSAYVFGTGTKVTVLGQPKAAPSVTLFPPSSEELQANKATLVCLISDFYPGAVTVAWKADSSPVKAGVETTTPSKQSNNKYAASSYLSLTPEQWKSHRSYSCQVTHEGSTVEKTVAPTECS | 30% | 72% | 84% |  | 
2 | PSMB937 (bispecific antibody, human IgG1, lambda, L234A L235A) heavy 1: QVQLQQSGPGLVKPSQTLSLTCAISGDSVFNNNAAWSWIRQSPSRGLEWLGRTYYRSKWLYDYAVSVKSRITINPDTSKNQFSLQLNSVTPEDTAVYYCARGYSSSFDYWGQGTLVTVSSASTKGPSVFPLAPSSKSTSGGTAALGCLVKDYFPEPVTVSWNSGALTSGVHTFPAVLQSSGLYSLSSVVTVPSSSLGTQTYICNVNHKPSNTKVDKKVEPKSCDKTHTCPPCPAPEAAGGPSVFLFPPKPKDTLMISRTPEVTCVVVSVSHEDPEVKFNWYVDGVEVHNAKTKPREEQYNSTYRVVSVLTVLHQDWLNGKEYKCKVSNKALPAPIEKTISKAKGQPREPQVYTLPPSREEMTKNQVSLTCLVKGFYPSDIAVEWESNGQPENNYKTTPPVLDSDGSFLLYSKLTVDKSRWQQGNVFSCSVMHEALHNHYTQKSLSLSPG light 1: QSALTQPASVSGSPGQSITISCTGTSSNIGTYKFVSWYQQHPGKAPKVMIYEVSKRPSGVSNRFSGSKSGNTASLTISGLQAEDEADYYCVSYAGSGTLLFGGGTKLTVLGQPKAAPSVTLFPPSSEELQANKATLVCLISDFYPGAVTVAWKADSSPVKAGVETTTPSKQSNNKYAASSYLSLTPEQWKSHRSYSCQVTHEGSTVEKTVAPTECS heavy 2: EVQLVESGGGLVQPGGSLRLSCAASGFTFSSYAMSWVRQAPGKGLEWVSAISGGSGSTYYADSVKGRFTISRDNSKNTLYLQMNSLRAEDSAVYYCAKDGVGATPYYFDYWGQGTLVTVSSASTKGPSVFPLAPSSKSTSGGTAALGCLVKDYFPEPVTVSWNSGALTSGVHTFPAVLQSSGLYSLSSVVTVPSSSLGTQTYICNVNHKPSNTKVDKKVEPKSCDKTHTCPPCPAPEAAGGPSVFLFPPKPKDTLMISRTPEVTCVVVSVSHEDPEVKFNWYVDGVEVHNAKTKPREEQYNSTYRVVSVLTVLHQDWLNGKEYKCKVSNKALPAPIEKTISKAKGQPREPQVYTLPPSREEMTKNQVSLTCLVKGFYPSDIAVEWESNGQPENNYKTTPPVLDSDGSFFLYSRLTVDKSRWQQGNVFSCSVMHEALHNHYTQKSLSLSPG light 2: QSVLTQPPSVSAAPGQKVTISCSGSSSNIGNNYVSWYQQLPGTAPKLLIYDNNKRPSGIPDRFSGSKSGTSATLGITGLQTGDEADYYCGTWDSSLSAYVFGTGTKVTVLGQPKAAPSVTLFPPSSEELQANKATLVCLISDFYPGAVTVAWKADSSPVKAGVETTTPSKQSNNKYAASSYLSLTPEQWKSHRSYSCQVTHEGSTVEKTVAPTECS |  |  | 41% |  | 
3 | PS3B1358 (bispecific antibody, human IgG1, lambda, L234A L235A) heavy 1: QVQLQQSGPGLVKPSQTLSLTCAISGDSVFNNNAAWSWIRQSPSRGLEWLGRTYYRSKWLYDYAVSVKSRITINPDTSKNQFSLQLNSVTPEDTAVYYCARGYSSSFDYWGQGTLVTVSSASTKGPSVFPLAPSSKSTSGGTAALGCLVKDYFPEPVTVSWNSGALTSGVHTFPAVLQSSGLYSLSSVVTVPSSSLGTQTYICNVNHKPSNTKVDKKVEPKSCDKTHTCPPCPAPEAAGGPSVFLFPPKPKDTLMISRTPEVTCVVVSVSHEDPEVKFNWYVDGVEVHNAKTKPREEQYNSTYRVVSVLTVLHQDWLNGKEYKCKVSNKALPAPIEKTISKAKGQPREPQVYTLPPSREEMTKNQVSLTCLVKGFYPSDIAVEWESNGQPENNYKTTPPVLDSDGSFLLYSKLTVDKSRWQQGNVFSCSVMHEALHNHYTQKSLSLSPGK light 1: QSALTQPASVSGSPGQSITISCTGTSSNIGTYKFVSWYQQHPGKAPKVMIYEVSKRPSGVSNRFSGSKSGNTASLTISGLQAEDEADYYCVSYAGSGTLLFGGGTKLTVLGQPKAAPSVTLFPPSSEELQANKATLVCLISDFYPGAVTVAWKADSSPVKAGVETTTPSKQSNNKYAASSYLSLTPEQWKSHRSYSCQVTHEGSTVEKTVAPTECS heavy 2: EVQLVESGGGLVQPGGSLRLSCAASGFTFSSYAMSWVRQAPGKGLEWVSAISGGSGSTYYADSVKGRFTISRDNSKNTLYLQMNSLRAEDSAVYYCAKDGVGATPYYFDYWGQGTLVTVSSASTKGPSVFPLAPSSKSTSGGTAALGCLVKDYFPEPVTVSWNSGALTSGVHTFPAVLQSSGLYSLSSVVTVPSSSLGTQTYICNVNHKPSNTKVDKKVEPKSCDKTHTCPPCPAPEAAGGPSVFLFPPKPKDTLMISRTPEVTCVVVSVSHEDPEVKFNWYVDGVEVHNAKTKPREEQYNSTYRVVSVLTVLHQDWLNGKEYKCKVSNKALPAPIEKTISKAKGQPREPQVYTLPPSREEMTKNQVSLTCLVKGFYPSDIAVEWESNGQPENNYKTTPPVLDSDGSFFLYSRLTVDKSRWQQGNVFSCSVMHEALHNHYTQKSLSLSPGK light 2: QSVLTQPPSVSAAPGQKVTISCSGSSSNIGINYVSWYQQLPGTAPKLLIYDNNKRPSGIPDRFSGSKSGTSATLGITGLQTGDEADYYCGTWDSSLSAVVFGGGTKLTVLGQPKAAPSVTLFPPSSEELQANKATLVCLISDFYPGAVTVAWKADSSPVKAGVETTTPSKQSNNKYAASSYLSLTPEQWKSHRSYSCQVTHEGSTVEKTVAPTECS | 93% | 94% | 88% | 68% | 90%
4 | PS3B1355 (bispecific antibody, human IgG1, lambda, L234A L235A) heavy 1: QVQLQQSGPRLVRPSQTLSLTCAISGDSVFNNNAAWSWIRQSPSRGLEWLGRTYYRSKWLYDYAVSVKSRITVNPDTSRNQFTLQLNSVTPEDTALYYCARGYSSSFDYWGQGTLVTVSSASTKGPSVFPLAPSSKSTSGGTAALGCLVKDYFPEPVTVSWNSGALTSGVHTFPAVLQSSGLYSLSSVVTVPSSSLGTQTYICNVNHKPSNTKVDKKVEPKSCDKTHTCPPCPAPEAAGGPSVFLFPPKPKDTLMISRTPEVTCVVVSVSHEDPEVKFNWYVDGVEVHNAKTKPREEQYNSTYRVVSVLTVLHQDWLNGKEYKCKVSNKALPAPIEKTISKAKGQPREPQVYTLPPSREEMTKNQVSLTCLVKGFYPSDIAVEWESNGQPENNYKTTPPVLDSDGSFLLYSKLTVDKSRWQQGNVFSCSVMHEALHNHYTQKSLSLSPGK light 1: QSALTQPASVSGSPGQSITISCTGTSSNIGTYKFVSWYQQHPDKAPKVLLYEVSKRPSGVSSRFSGSKSGNTASLTISGLQAEDQADYHCVSYAGSGTLLFGGGTKLTVLGQPKAAPSVTLFPPSSEELQANKATLVCLISDFYPGAVTVAWKADSSPVKAGVETTTPSKQSNNKYAASSYLSLTPEQWKSHRSYSCQVTHEGSTVEKTVAPTECS heavy 2: EVQLVESGGGLVQPGGSLRLSCAASGFTFSSYAMSWVRQAPGKGLEWVSAISGGSGSTYYADSVKGRFTISRDNSKNTLYLQMNSLRAEDSAVYYCAKDGVGATPYYFDYWGQGTLVTVSSASTKGPSVFPLAPSSKSTSGGTAALGCLVKDYFPEPVTVSWNSGALTSGVHTFPAVLQSSGLYSLSSVVTVPSSSLGTQTYICNVNHKPSNTKVDKKVEPKSCDKTHTCPPCPAPEAAGGPSVFLFPPKPKDTLMISRTPEVTCVVVSVSHEDPEVKFNWYVDGVEVHNAKTKPREEQYNSTYRVVSVLTVLHQDWLNGKEYKCKVSNKALPAPIEKTISKAKGQPREPQVYTLPPSREEMTKNQVSLTCLVKGFYPSDIAVEWESNGQPENNYKTTPPVLDSDGSFFLYSRLTVDKSRWQQGNVFSCSVMHEALHNHYTQKSLSLSPGK light 2: QSVLTQPPSVSAAPGQKVTISCSGSSSNIGINYVSWYQQLPGTAPKLLIYDNNKRPSGIPDRFSGSKSGTSATLGITGLQTGDEADYYCGTWDSSLSAVVFGGGTKLTVLGQPKAAPSVTLFPPSSEELQANKATLVCLISDFYPGAVTVAWKADSSPVKAGVETTTPSKQSNNKYAASSYLSLTPEQWKSHRSYSCQVTHEGSTVEKTVAPTECS | 96% | 95% | 94% | 92% | 97%
